Data set [1] relates to HeLa Kyoto. In words: solubility in G1/S (NP-40 vs SDS abundance) (log2 ratio); higher = more soluble. To be noted: cell cycle stage: G1/S.
In data set [2] the test system is HeLa Kyoto. The data set can be described thus: solubility change mitosis vs G1/S (difference of NP-40 vs SDS log2 ratios) (log2 ratio difference); higher = more soluble in mitosis.
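Wherever solubility change mitosis vs G1/S (difference of NP-40 vs SDS log2 ratios) is given: synchronized HeLa Kyoto cells (double thymidine block for G1/S, nocodazole release for mitosis), protein amounts in NP-40 versus SDS lysates quantified by mass spectrometry, three biological replicates.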
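Wherever solubility in G1/S (NP-40 vs SDS abundance) is given: HeLa Kyoto cells arrested at G1/S by double thymidine block, proteins quantified by TMT10plex mass spectrometry in mild NP-40 versus SDS extracts, three biological replicates.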

LMTK2, sequence (chain, as listed by the source): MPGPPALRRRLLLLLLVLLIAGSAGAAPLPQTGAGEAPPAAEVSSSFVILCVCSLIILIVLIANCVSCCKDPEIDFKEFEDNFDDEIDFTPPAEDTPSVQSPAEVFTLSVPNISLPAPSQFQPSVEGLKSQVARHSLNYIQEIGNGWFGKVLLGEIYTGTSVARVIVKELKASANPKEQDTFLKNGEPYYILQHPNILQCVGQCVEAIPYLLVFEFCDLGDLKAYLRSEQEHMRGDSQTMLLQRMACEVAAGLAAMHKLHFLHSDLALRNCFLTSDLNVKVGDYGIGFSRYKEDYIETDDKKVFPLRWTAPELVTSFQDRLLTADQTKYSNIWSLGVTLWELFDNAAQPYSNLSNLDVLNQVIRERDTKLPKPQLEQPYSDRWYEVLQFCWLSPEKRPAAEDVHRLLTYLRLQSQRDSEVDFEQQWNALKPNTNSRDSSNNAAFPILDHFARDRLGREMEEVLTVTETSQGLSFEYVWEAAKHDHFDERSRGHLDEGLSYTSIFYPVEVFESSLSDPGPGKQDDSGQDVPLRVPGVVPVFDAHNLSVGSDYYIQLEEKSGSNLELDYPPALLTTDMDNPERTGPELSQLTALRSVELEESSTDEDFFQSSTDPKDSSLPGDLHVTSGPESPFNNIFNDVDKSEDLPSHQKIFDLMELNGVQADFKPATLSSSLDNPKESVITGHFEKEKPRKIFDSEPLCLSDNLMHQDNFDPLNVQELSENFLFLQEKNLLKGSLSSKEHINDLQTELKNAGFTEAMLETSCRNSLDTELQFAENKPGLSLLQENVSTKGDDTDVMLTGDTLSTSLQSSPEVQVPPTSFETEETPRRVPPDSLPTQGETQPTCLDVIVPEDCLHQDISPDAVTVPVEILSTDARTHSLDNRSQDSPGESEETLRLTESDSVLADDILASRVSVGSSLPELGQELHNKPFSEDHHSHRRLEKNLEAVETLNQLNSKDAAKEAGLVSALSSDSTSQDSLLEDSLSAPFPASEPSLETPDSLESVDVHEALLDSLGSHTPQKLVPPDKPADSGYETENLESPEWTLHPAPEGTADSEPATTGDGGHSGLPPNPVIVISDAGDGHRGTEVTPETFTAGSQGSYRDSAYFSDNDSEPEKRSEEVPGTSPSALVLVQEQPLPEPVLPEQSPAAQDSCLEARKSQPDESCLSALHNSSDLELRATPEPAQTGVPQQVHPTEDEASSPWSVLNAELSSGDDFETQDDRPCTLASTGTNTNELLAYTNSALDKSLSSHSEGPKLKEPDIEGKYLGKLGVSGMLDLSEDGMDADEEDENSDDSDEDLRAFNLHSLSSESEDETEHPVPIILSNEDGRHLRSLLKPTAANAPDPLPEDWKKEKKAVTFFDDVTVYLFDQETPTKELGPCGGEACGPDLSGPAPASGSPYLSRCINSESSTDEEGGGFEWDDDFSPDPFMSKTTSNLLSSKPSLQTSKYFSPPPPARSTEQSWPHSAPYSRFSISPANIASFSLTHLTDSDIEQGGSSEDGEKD

Regarding “MSRSGAAAEKADSRQRPQMKVNEYKENQNIAYVSLRPAQTTVLIKTAKVYLAPFSLSNYQLDQLMCPKSLSEKNSNNEVACKKTKIKKTCRRIIPPKMKNTSSKAESTLQNSSSAVHTESNKLQPKRTADAMNLSVDVESSQDGDSDEDTTPSLDFSGLSPYERKRLKNISENADFFASLQLSESAARLREMIEKRQPPKSKRKKPKRENGIGCRRSMRLLKVDPSGVSLPAAPTPPTLVADETPLLPPGPLEMTSENQEDNNERFKGFLHTWAGMSKPSSKNTEKGLSSIKSYKANLNGMVISEDTVYKVTTGPIFSMALHPSETRTLVAVGAKFGQVGLCDLTQQPKEDGVYVFHPHSQPVSCLYFSPANPAHILSLSYDGTLRCGDFSRAIFEEVYRNERSSFSSFDFLAEDASTLIVGHWDGNMSLVDRRTPGTSYEKLTSSSMGKIRTVHVHPVHRQYFITAGLRDTHIYDARRLNSRRSQPLISLTEHTKSIASAYFSPLTGNRVVTTCADCNLRIFDSSCISSKIPLLTTIRHNTFTGRWLTRFQAMWDPKQEDCVIVGSMAHPRRVEIFHETGKRVHSFGGEYLVSVCSINAMHPTRYILAGGNSSGKIHVFMNEKSC [WDR76]”, in the data set on HeLa Kyoto [1], the “solubility in G1/S (log2)” value was -1.61. The “solubility change mitosis (log2)” value with HeLa Kyoto [2] was 1.15.
On the same counts, the results for ARHGEF11 are -0.0113 and -0.0196.
On the same counts, the results for “MAGAGGQHHPPGAAGGAAAGAGAAVTSAAASAGPGEDSSDSEAEQEGPQKLIRKVSTSGQIRTKTSIKEGQLLKQTSSFQRWKKRYFKLRGRTLYYAKDSKSLIFDEVDLSDASVAEASTKNANNSFTIITPFRRLMLCAENRKEMEDWISSLKSVQTREPYEVAQFNVEHFSGMHNWYACSHARPTFCNVCRESLSGVTSHGLSCEVCKFKAHKRCAVRATNNCKWTTLASIGKDIIEDEDGVAMPHQWLEGNLPVSAKCAVCDKTCGSVLRLQDWKCLWCKTMVHTACKDLYHPICPLGQCKVSIIPPIALNSTDSDGFCRATFSFCVSPLLVFVNSKSGDNQGVKFLRRFKQLLNPAQVFDLMNGGPHLGLRLFQKFDNFRILVCGGDGSVGWVLSEIDKLNLNKQCQLGVLPLGTGNDLARVLGWGGSYDDDTQLPQILEKLERASTKMLDRWSIMTYELKLPPKASLLPGPPEASEEFYMTIYEDSVATHLTKILNSDEHAVVISSAKTLCETVKDFVAKVEKTYDKTLENAVVADAVASKCSVLNEKLEQLLQALHTDSQAAPVLPGLSPLIVEEDAVESSSEESLGESKEQLGDDVTKPSSQKAVKPREIMLRANSLKKAVRQVIEEAGKVMDDPTVHPCEPANQSSDYDSTETDESKEEAKDDGAKESITVKTAPRSPDARASYGHSQTDSVPGPAVAASKENLPVLNTRIICPGLRAGLAASIAGSSIINKMLLANIDPFGATPFIDPDLDSVDGYSEKCVMNNYFGIGLDAKISLEFNNKREEHPEKCRSRTKNLMWYGVLGTRELLQRSYKNLEQRVQLECDGQYIPLPSLQGIAVLNIPSYAGGTNFWGGTKEDDIFAAPSFDDKILEVVAIFDSMQMAVSRVIKLQHHRIAQCRTVKITIFGDEGVPVQVDGEAWVQPPGIIKIVHKNRAQMLTRDRAFESTLKSWEDKQKCDSGKPVLRTHLYIHHAIDLATEEVSQMQLCSQAAEELITRICDAATIHCLLEQELAHAVNACSHALNKANPRCPESLTRDTATEIAINVKALYNETESLLVGRVPLQLESPHEERVSNALHSVEVELQKLTEIPWLYYILHPNEDEEPPMDCTKRNNRSTVFRIVPKFKKEKVQKQKTSSQPVQKWGTEEVAAWLDLLNLGEYKDIFIRHDIRGAELLHLERRDLKDLGIPKVGHVKRILQGIKELGRSTPQSEV [DGKH]” are -0.212 and 0.0195.
As for “MAMVVSSWRDPQDDVAGGNPGGPNPAAQAARGGGGGAGEQQQQAGSGAPHTPQTPGQPGAPATPGTAGDKGQGPPGSGQSQQHIECVVCGDKSSGKHYGQFTCEGCKSFFKRSVRRNLTYTCRANRNCPIDQHHRNQCQYCRLKKCLKVGMRREAVQRGRMPPTQPNPGQYALTNGDPLNGHCYLSGYISLLLRAEPYPTSRYGSQCMQPNNIMGIENICELAARLLFSAVEWARNIPFFPDLQITDQVSLLRLTWSELFVLNAAQCSMPLHVAPLLAAAGLHASPMSADRVVAFMDHIRIFQEQVEKLKALHVDSAEYSCLKAIVLFTSDACGLSDAAHIESLQEKSQCALEEYVRSQYPNQPSRFGKLLLRLPSLRTVSSSVIEQLFFVRLVGKTPIETLIRDMLLSGSSFNWPYMSIQCS [NR2F1]”, the “solubility in G1/S (log2)” value in the data set with HeLa Kyoto [1] is -0.152. For the same substance, the “solubility change mitosis (log2)” value in the data set on HeLa Kyoto [2] is 0.0314.
On the same counts, the results for “MGLSTVPDLLLPLVLLELLVGIYPSGVIGLVPHLGDREKRDSVCPQGKYIHPQNNSICCTKCHKGTYLYNDCPGPGQDTDCRECESGSFTASENHLRHCLSCSKCRKEMGQVEISSCTVDRDTVCGCRKNQYRHYWSENLFQCFNCSLCLNGTVHLSCQEKQNTVCTCHAGFFLRENECVSCSNCKKSLECTKLCLPQIENVKGTEDSGTTVLLPLVIFFGLCLLSLLFIGLMYRYQRWKSKLYSIVCGKSTPEKEGELEGTTTKPLAPNPSFSPTPGFTPTLGFSPVPSSTFTSSSTYTPGDCPNFAAPRREVAPPYQGADPILATALASDPIPNPLQKWEDSAHKPQSLDTDDPATLYAVVENVPPLRWKEFVRRLGLSDHEIDRLELQNGRCLREAQYSMLATWRRRTPRREATLELLGRVLRDMDLLGCLEDIEEALCGPAALPPAPSLLR [TNFRSF1A]” are -0.165 and -0.132.
For “MNFTPTHTPVCRKRTVVSKRGVAVSGPTKRRGMADSLESTPLPSPEDRLAKLHPSKELLEYYQKKMAECEAENEDLLKKLELYKEACEGQHKLECDLQQREEEIAELQKALSDMQVCLFQEREHVLRLYSENDRLRIRELEDKKKIQNLLALVGTDAGEVTYFCKEPPHKVTILQKTIQAVGECEQSESSAFKADPKISKRRPSRERKESSEHYQRDIQTLILQVEALQAQLGEQTKLSREQIEGLIEDRRIHLEEIQVQHQRNQNKIKELTKNLHHTQELLYESTKDFLQLRSENQNKEKSWMLEKDNLMSKIKQYRVQCKKKEDKIGKVLPVMHESHHAQSEYIKSLKDKLVQEKKLSNMYQEQCISLEEELARIREEEGMRREIFKDRTNKMGKRLQIMTKRYEALERRRILEVEGFKTDIKVLRQKLKDLEQMLYKATVNARANQDLALLCEVRDSNRRAHKIQGELKNLKSKVFGLENELRLC [CCDC77]” the same measures were -0.0939 and 0.373.
On the same counts, the results for “MEPRAAAAGEPEPPAASSSFQARLWKNLQLGVGRSKGGGGGRAGGPERRTADTPSPSPPPPVGTGNAPARGSGAGSRWSGFKKRKQVLDRVFSSSQPNLCCSSPEPLEPGGAGRAEQGSTLRRRIREHLLPAVKGPAAASGAAGGTPPGGRSPDSAPSSSSASSSLSSSPQPPPRGDRARDEGARRQGPGAHLCHQKSSSLPGTACLEQLLEPPPPPAEPARSPAESRAPETGEEHGSSQKIINTAGTSNAEVPLADPGMYQLDITLRRGQSLAARDRGGTSDPYVKFKIGGKEVFRSKIIHKNLNPVWEEKACILVDHLREPLYIKVFDYDFGLQDDFMGSAFLDLTQLELNRPTDVTLTLKDPHYPDHDLGIILLSVILTPKEGESRDVTMLMRKSWKRSSKELSENEVVGSYFSVKSLFWRTCGRPALPVLGFCRAELQNPYCKNVQFQTQSLRLSDLHRKSHLWRGIVSITLIEGRDLKAMDSNGLSDPYVKFRLGHQKYKSKIMPKTLNPQWREQFDFHLYEERGGVIDITAWDKDAGKRDDFIGRCQVDLSALSREQTHKLELQLEEGEGHLVLLVTLTASATVSISDLSVNSLEDQKEREEILKRYSPLRIFHNLKDVGFLQVKVIRAEGLMAADVTGKSDPFCVVELNNDRLLTHTVYKNLNPEWNKVFTFNIKDIHSVLEVTVYDEDRDRSADFLGKVAIPLLSIQNGEQKAYVLKNKQLTGPTKGVIYLEIDVIFNAVKASLRTLIPKEQKYIEEENRLSKQLLLRNFIRMKRCVMVLVNAAYYVNSCFDWDSPPRSLAAFVLFLFVVWNFELYMIPLVLLLLLTWNYFLIISGKDNRQRDTVVEDMLEDEEEEDDKDDKDSEKKGFINKIYAIQEVCVSVQNILDEVASFGERIKNTFNWTVPFLSWLAIVALCVFTAILYCIPLRYIVLVWGINKFTKKLRSPYAIDNNELLDFLSRVPSDVQVVQYQELKPDPSHSPYKRKKNNLG [MCTP1]” are 0.0529 and -0.196.
LMTK2: in the data set with HeLa Kyoto [1], the “solubility in G1/S (log2)” value was -0.313. Moreover, the “solubility change mitosis (log2)” value with HeLa Kyoto [2] was -0.217.

Values taken from the supplement of paper PMC5998384.
